Laboratory results: patent US10378034B2, “Use of a N-acetylneuraminate lyase derived from the bacterium Aliivibrio salmonicida in the production of neuraminic acid and derivatives thereof” (Universitetet i Tromsø-Norges Arktiske Universitet, priority 2014, dated 2019)

Experiments:
[1] = Thermofluor thermal denaturation; assay type: physicochemical
Method: Long term stability of AsNAL at different pH was studied by incubating the enzyme at pH values from 6.0 to 11.0 at room temperature for a month. Buffers used were Sodium phosphate (pH 6.0-7.0), HEPES (pH 7.0-8.0), Tris-HCl (pH 8.0-9.0) and glycine (pH 9.0-11.0). The enzyme activity in the condensation direction was measured using the standard reaction mixture incubated at room temperature for 1 h, with subsequent TBA assay. The stability of AsNAL at different pH was also studied using the thermofluor method described by Ericsson et al. (2006) where increased or decreased stability is related to the increase or decrease in the melting temperature of the protein. For the thermofluor assay, the protein was dialyzed overnight at 4° C. against a buffer containing 10 mM HEPES pH 7.5, 150 mM NaCl and 2 mM β-ME in Pierce Slide-A-Lyzer dialysis cassettes with a 3.5 kDa cutoff. The dialyzed protein was mixed with 2 μl of 300× Sypro® Orange protein gel stain (Sigma) and 100 mM of different buffers ranging from pH 5.0 to pH 9.0. Thermal shifts were screened for by heating in an iCycler iQ Real Time PCR Detection System (Bio-Rad Laboratories) from 1 to 80° C. in increments of 1° C./min. […]

[2] = Long term stability at different pH (condensation activity after one month); assay type: physicochemical
Method: Long term stability of AsNAL at different pH was studied by incubating the enzyme at pH values from 6.0 to 11.0 at room temperature for a month. Buffers used were Sodium phosphate (pH 6.0-7.0), HEPES (pH 7.0-8.0), Tris-HCl (pH 8.0-9.0) and glycine (pH 9.0-11.0). The enzyme activity in the condensation direction was measured using the standard reaction mixture incubated at room temperature for 1 h, with subsequent TBA assay. The stability of AsNAL at different pH was also studied using the thermofluor method described by Ericsson et al. (2006) where increased or decreased stability is related to the increase or decrease in the melting temperature of the protein. For the thermofluor assay, the protein was dialyzed overnight at 4° C. against a buffer containing 10 mM HEPES pH 7.5, 150 mM NaCl and 2 mM β-ME in Pierce Slide-A-Lyzer dialysis cassettes with a 3.5 kDa cutoff. The dialyzed protein was mixed with 2 μl of 300× Sypro® Orange protein gel stain (Sigma) and 100 mM of different buffers ranging from pH 5.0 to pH 9.0. Thermal shifts were screened for by heating in an iCycler iQ Real Time PCR Detection System (Bio-Rad Laboratories) from 1 to 80° C. in increments of 1° C./min. The buffers tested were: Sodium acetate (pH 5.0), Phosphate citrate (pH 5.0-5.5), Sodium citrate (pH 5.5), MES (pH 6.0-6.5), Na-cacodylate (pH 6.0-6.5), Sodium dipotassium phosphate (pH 6.5), BisTris (pH 7.0), HEPES (pH 7.0-8.0), Tris-HCl (pH 7.5-8.5), Imidazole (pH 7.5-8.0), Bicine (pH 8.5) and BisTris propane (pH 8.5-9.0).

[3] = TBA assay, condensation activity: pH and temperature profiles; assay type: biochemical
Method: Both the condensation and cleavage activities of NAL were assessed using the modified thiobarbituric acid (TBA) assay developed by Aminoff (1961) and Warren (1959). The condensation activity was determined by incubating 50 μl of a reaction mixture containing 15 mM sodium pyruvate, 15 mM ManNAc, 124 mM HEPES pH 8.0 and different concentrations of enzyme depending on assay type at selected temperatures for the required amount of time. The reaction was terminated by adding 137 μl 2.5 mg/ml sodium periodate in 57 mM H2SO4, followed by incubation at 37° C. for 15 min with shaking at 1350 rpm. Sodium arsenite (50 μl, 25 mg/ml sodium arsenite in 0.5 M HCl) was added resulting in brown color. The tubes were shaken manually until the brown color disappeared. 2-thiobarbituric acid solution (100 μl, 71 mg/ml adjusted to pH 9.0) was subsequently added, and the tubes were incubated in boiling water for 7.5 min. […] The organic phase containing the red chromophore (200 μl) was used for measurement of absorbance at 549 nm in a spectrophotometer (SpectraMax M2e, Molecular Devices). […]
pH profiles were determined by assaying the enzyme in triplicate for both condensation and cleavage directions at pH values ranging from 5.5 to 11.0 with 0.5 pH unit intervals. […] Temperature profiles were determined for both directions by assaying the enzyme in triplicate from 4 to 80° C. in HEPES buffer pH 8.0. […]

[4] = Comparative specific activity, condensation reaction (TBA assay); assay type: biochemical
Method: Both the condensation and cleavage activities of NAL were assessed using the modified thiobarbituric acid (TBA) assay developed by Aminoff (1961) and Warren (1959). The condensation activity was determined by incubating 50 μl of a reaction mixture containing 15 mM sodium pyruvate, 15 mM ManNAc, 124 mM HEPES pH 8.0 and different concentrations of enzyme depending on assay type at selected temperatures for the required amount of time. The reaction was terminated by adding 137 μl 2.5 mg/ml sodium periodate in 57 mM H2SO4, followed by incubation at 37° C. for 15 min with shaking at 1350 rpm. Sodium arsenite (50 μl, 25 mg/ml sodium arsenite in 0.5 M HCl) was added resulting in brown color. The tubes were shaken manually until the brown color disappeared. 2-thiobarbituric acid solution (100 μl, 71 mg/ml adjusted to pH 9.0) was subsequently added, and the tubes were incubated in boiling water for 7.5 min. The tubes were incubated on ice for 5 min and allowed to remain at room temperature for 5 min. The red chromophore was extracted by addition of acidic butanol (1 ml of acidic butanol with 5% HCl) and horizontal shaking for 10 min. Tubes were centrifuged at 16060×g, 7 min (room temperature) to separate the organic and inorganic phases. The organic phase containing the red chromophore (200 μl) was used for measurement of absorbance at 549 nm in a spectrophotometer (SpectraMax M2e, Molecular Devices). The amount of Neu5Ac produced was inferred from a standard curve. To generate a standard curve, different concentrations of Neu5Ac (0.031 mM-1 mM) were treated with 137 μl of 2.5 mg/ml sodium periodate in 57 mM H2SO4 and the TBA assay procedure was followed as described above.
(§1) Standard reaction mixtures were incubated at room temperature for 1 h before being subjected to the TBA assay.

[5] = Comparative specific activity, cleavage reaction (TBA assay); assay type: biochemical
Method: (§2) The cleavage activity was determined by incubating 50 μl of a reaction mixture containing 5 mM Neu5Ac, 124 mM HEPES pH 8.0 and different concentrations of enzyme depending on assay type at selected temperatures for the required amount of time. Termination of the reactions and subsequent steps of the assay are as described above. The decrease in absorbance is correlated to the increase in cleavage activity.
as §1

[6] = Temperature shift experiment on production yield of Neu5Ac; assay type: biochemical; conditions: shifting reaction temperature from 23° C. to 4° C.; 50 mM pyruvate, 5 mM ManNAc
Method: The effect of substrate ratio on the conversion yield of Neu5Ac was studied by varying the pyruvate concentration while the concentration of ManNAc was kept constant. The pyruvate concentration ranged from 2.5 to 70 mM, whereas the ManNAc concentration was 5 mM, resulting in a pyruvate:ManNAc ratio ranging from 0.5 to 14. The condensation reaction mixture containing different ratios of pyruvate and ManNAc along with 124 mM HEPES buffer pH 8.0 and enzyme was incubated at room temperature for 7.5 h. […] Thus, a temperature shift experiment was carried out to see how much the Neu5Ac production could be increased by altering the equilibrium once it had been achieved. For a temperature shift experiment, the reaction mixture (enzyme, 50 mM pyruvate, 5 mM ManNAc, 124 mM HEPES buffer pH 8.0) was incubated at room temperature for 7.5 h and after reaching equilibrium it was shifted to 4° C. and incubated for 15 h. As a control, one reaction was kept at room temperature and another at 4° C. for all the time. The difference in yield between the temperature shifted and non-shifted reactions were calculated. The standard TBA assay was used to assess the activity.

[7] = TBA assay, cleavage activity: pH and temperature profiles; assay type: biochemical
Method: as §2
pH profiles were determined by assaying the enzyme in triplicate for both condensation and cleavage directions at pH values ranging from 5.5 to 11.0 with 0.5 pH unit intervals. Sodium phosphate buffer was used from pH 5.5 to 7.5, HEPES buffer from pH 6.5 to 8.0, Tris-HCl buffer from pH 7.5 to 9.0 and Glycine buffer from pH 9.0 to 11.0. The reaction mixture was incubated at room temperature for 1 h before being subjected to the TBA assay. Temperature profiles were determined for both directions by assaying the enzyme in triplicate from 4 to 80° C. in HEPES buffer pH 8.0. The reaction mixture was incubated for 30 min at selected temperatures and the reaction was terminated by adding 2 μl of concentrated H2SO4 and then subjected to the TBA assay.

[8] = at 10° C., relative to highest value

B1: AsNAL: N-acetylneuraminate lyase isolated from the psychrophilic bacterium Aliivibrio salmonicida LFI1238, recombinantly expressed in E. coli (protein, listed as Aliivibrio salmonicida)
chain: MKKLTGLIAAPHTPFDSSSNVNFEEIDKIAKHLINDGVKGIYVCGTTGEGIHCSVEERKAIAERWVSACNHKLDIIVHTGALSIVDTLELTRHADTLDILATSAIGPCFFKPGSVSDLVEYCATIAAAAPSKGFYYYHSGMSGVNLNMEEFLIQADKRIPNLSGLKFNSGDLYEYQRCLRACDGKFDVPFGVDEFLPGALAVGAKSAVGSTYNYAAPHFNSIIEAFNKGDHDAVFNKMTNVIELIRVLVEFGGVAAGKIAMELHDINAGDPRLPLMPLSAEQKLTVVEKMRAANFLK
melting temperature (thermofluor) ([1]; 500 mM NaCl): 76.9 °C
melting temperature (thermofluor) ([1]; milli-Q water): 73.15±0.21 °C
decrease in activity (condensation) after one month ([2]; Glycine pH 11.0, room temperature): 3.3%
decrease in activity (condensation) after one month ([2]; HEPES pH 8.0, room temperature): 14.5%
decrease in activity (condensation) after one month ([2]; Phosphate pH 7.0, room temperature): 15%
decrease in activity (condensation) after one month ([2]; Tris-HCl pH 8.0, room temperature): 14%
decrease in activity (condensation) after one month ([2]; Tris-HCl pH 8.5, room temperature): 6.4%
decrease in activity (condensation) after one month ([2]; Tris-HCl pH 9.0, room temperature): 4%
activity retained after storage compared to initial activity ([2]; all measured pH (6.0 to 11.0), one month, room temperature): More than 83%
optimal temperature, condensation reaction ([3]; HEPES buffer pH 8.0, 30 min): 20 °C
condensation activity retained [3, 8]: 75%
specific activity of the condensation reaction, higher than EcNAL ([4]; 4° C.): 40%
specific activity of the condensation reaction, higher than EcNAL ([4]; 23° C.): 60%
specific activity of the condensation reaction, higher than EcNAL ([4]; 37° C.): 40%
specific activity of the cleavage reaction, higher than EcNAL ([5]; 4° C.): 25%
specific activity of the cleavage reaction, higher than EcNAL ([5]; 23° C.): 35%
specific activity of the cleavage reaction, higher than EcNAL ([5]; 37° C.): 35%
increase in yield of Neu5Ac [6]: 30%
optimal temperature, cleavage reaction ([7]; HEPES buffer pH 8.0, 30 min): 65 °C
cleavage activity retained [7, 8]: 30%
